# Results: doi:10.1101/2020.11.14.20231811
# B1: CoV2-RBD-1C, MB/thiol-modified (structured_DNA)
# DNA: CAGCACCGACCTTGTGCTTTGGGAGTGCTGGTCCAAGGGCGTTAATGGACA
# modifications: 5' methylene blue; 3' thiol C3 (ThioMC3-D)
# Target: SARS-CoV-2 spike S1 subunit (SARS-CoV-2, UniProt P0DTC2 13-685)
# Assay: phosphate buffer
binder,measurement,value
B1,binding result,binds
